Experimental data: patent US20190083615A1 (Merck Sharp & Dohme, published 2019)

How the values were obtained:
[1] = target: T1, human LAG3-huFc recombinant protein (human, UniProt P18627 23-450, limits assumed, biotinylated in the runs with humanized and chimeric antibodies (Example 11)); assay: flow cytometry, blockade of biotinylated human LAG3-huFc binding to MHC class II on Daudi cells, streptavidin-PE
T1 construct: also called human LAG3-Fc; huLAG3-huFc; not shown: human Fc
T1 sequence: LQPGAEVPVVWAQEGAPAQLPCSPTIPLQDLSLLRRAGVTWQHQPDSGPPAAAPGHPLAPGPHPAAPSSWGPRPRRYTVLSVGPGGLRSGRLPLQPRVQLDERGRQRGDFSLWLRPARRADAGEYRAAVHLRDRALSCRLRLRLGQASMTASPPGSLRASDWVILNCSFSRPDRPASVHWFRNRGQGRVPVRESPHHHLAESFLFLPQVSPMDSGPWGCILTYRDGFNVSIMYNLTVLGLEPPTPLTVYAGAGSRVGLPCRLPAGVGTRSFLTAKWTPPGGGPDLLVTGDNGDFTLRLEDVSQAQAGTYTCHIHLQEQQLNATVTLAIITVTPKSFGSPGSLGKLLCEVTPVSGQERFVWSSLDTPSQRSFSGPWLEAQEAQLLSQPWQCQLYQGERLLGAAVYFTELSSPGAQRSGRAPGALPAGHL
Experimental: Mouse anti-human LAG3 and humanized anti-LAG3 clones were tested for their ability to block hLAG3 interaction with human MHC Class II. Daudi cells (ATCC #CCL-213) were used as a cell line positive for human MHC class II expression. Daudi cells were blocked with 10 ug/ml of goat IgG in HBSS and 2% BCS on ice for 30 minutes and 0.5×10⁶ cells/sample were aliquoted into a 96-well V-bottom plate and blocking buffer removed. […] Cells were pelleted by centrifugation at 1200 rpm and washed twice with HBSS/2% BCS. […] Cells were washed twice as described above, resuspended in HBSS/2% BCS and read on the FACSCalibur.

[2] = target: T2, human LAG3 (Lymphocyte Activation Gene-3) expressed on cells (human, UniProt P18627 23-525); assay: cell based KinExA, BaF/3 cells transfected with human LAG3 (n=3)
T2 construct: also called hLAG3; CD223
T2 sequence: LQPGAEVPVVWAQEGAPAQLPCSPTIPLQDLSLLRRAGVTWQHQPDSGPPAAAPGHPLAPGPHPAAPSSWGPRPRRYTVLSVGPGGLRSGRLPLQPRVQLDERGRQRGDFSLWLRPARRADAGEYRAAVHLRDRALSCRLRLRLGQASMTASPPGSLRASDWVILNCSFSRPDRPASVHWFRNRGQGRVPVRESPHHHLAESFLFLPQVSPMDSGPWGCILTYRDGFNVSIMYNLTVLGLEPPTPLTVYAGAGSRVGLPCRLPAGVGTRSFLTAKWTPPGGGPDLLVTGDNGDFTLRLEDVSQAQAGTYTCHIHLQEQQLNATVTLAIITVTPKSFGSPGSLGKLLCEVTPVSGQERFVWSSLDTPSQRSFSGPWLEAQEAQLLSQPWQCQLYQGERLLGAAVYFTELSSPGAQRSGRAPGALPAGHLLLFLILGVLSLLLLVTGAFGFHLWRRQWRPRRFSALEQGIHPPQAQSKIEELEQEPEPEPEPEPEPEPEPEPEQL
Experimental: The affinities of the LAG3 antibodies for LAG3 were determined using a cell based Kinetic Exclusion Assay (KinExA). Cell based KinExA can be used to measure the affinity of a molecule for a binding partner on a cell surface (Rathanaswami et al. Analylitical Biochemistry 373(1): 52-60 (2008); Xie et al. J. Immunol. Methods 304 (1-2): 1-14 (2005)). In this case, BaF/3 cells were stably transfected with human and cynomolgus monkey LAG3 proteins. Transfected cells or the parental BaF/3 control cell line were grown to a density of 1.7×10⁶ to 3.2×10⁶ cells per ml at 37° C., 120 RPM, 5% CO₂, in 1X RPMI 1640 media with 10% FBS, 10 ng/ml IL-3, 5 μg/ml puromycin. Cells were concentrated, mixed with 15 pM or 150 pM antibody in cell culture media and incubated 24 to 48 hours at room temperature while rotating at 20 to 30 RPM. Cells were present at a top concentration of 2×10⁷ cells per ml (parental BaF/3 or cynomolgus LAG3 transfectants) or 1×10⁷ cells per ml (human LAG3 transfectants) and diluted in a 2-fold, 18 member series. The cells were pelleted and free antibody in the supernatant was measured using a KinExA 3200 instrument (Sapidyne, Id., USA). […] Antibody on the beads was labeled with 1.5 μg/ml Alexa Fluor® 647 conjugated goat anti-human (Fab′)₂ (Jackson ImmunoResearch Laboratories), washed and the fluorescent signal was read all using the KinExA™ 3200. […]

[3] = target: T2, human LAG3 (Lymphocyte Activation …); assay: flow cytometry, PHA-activated human CD8+ T cells (3 donors)
Experimental: (§1) Binding of LAG-3 mAb clones to primary T-cells was assessed using human and cynomolgous monkey (cyno) peripheral blood mononuclear cells (PBMC). Human blood was obtained from the local donors; cyno blood was obtained from Bioreclamation. PBMC were isolated from the whole blood using Ficoll-Paque Plus (GE Healthcare, Cat# 17-1440-03) density gradient centrifugation at 524×g for 40 minutes. PBMC were collected from the medium:plasma interface and washed 2 times with phosphate buffered saline (PBS). The residual red blood cells were lysed using ammonium-chloride-potassium red blood cell lysing solution (ACK, GIBCO, cat# A10492-010). Cynomolgus monkey or human PBMC (3×10⁶/ml) were stimulated with 4 μg/ml PHA (Sigma, L2769) for 48 h and 20 h, respectively. For flow cytometric analysis, 1×10⁶ PHA-activated PBMCs were used per staining in 50 μl FACS staining buffer (BD, cat# 554657). LAG-3 mAb clones or correspondent isotype controls were incubated with human or cyno PBMS followed by detection using goat anti-mouse IgG-PE (BD 550589). […] Sample acquisition was performed on an LSR II flow cytometer and the data were analyzed using FlowJo software version 10.0.6 (Tree Star, Inc.).
(§2) The data represent 3 human and 3 cynomolgus donors after stimulation with 4 ug/ml of PHA for 40 hours prior to staining.

[4] = target: T2, human LAG3 (Lymphocyte Activation …); assay: flow cytometry, PHA-activated human CD4+ T cells (3 donors)
Experimental: as §1, §2

human CD4 = target: T3, human CD4 (human, UniProt P01730 26-458); assay: BiaCore (SPR)
T3 construct: whole, on cells; Tested on transfected L-cells by FACS and also by BiaCore

B1: Ab6: humanized light chain 45AGX Humanized x[LAG3_H] mAb (LB145.22D2.E1.D1 (VL3)) Kappa (PX) and humanized heavy chain 73AHD Humanized x[LAG3_H] mAb … (antibody)
heavy: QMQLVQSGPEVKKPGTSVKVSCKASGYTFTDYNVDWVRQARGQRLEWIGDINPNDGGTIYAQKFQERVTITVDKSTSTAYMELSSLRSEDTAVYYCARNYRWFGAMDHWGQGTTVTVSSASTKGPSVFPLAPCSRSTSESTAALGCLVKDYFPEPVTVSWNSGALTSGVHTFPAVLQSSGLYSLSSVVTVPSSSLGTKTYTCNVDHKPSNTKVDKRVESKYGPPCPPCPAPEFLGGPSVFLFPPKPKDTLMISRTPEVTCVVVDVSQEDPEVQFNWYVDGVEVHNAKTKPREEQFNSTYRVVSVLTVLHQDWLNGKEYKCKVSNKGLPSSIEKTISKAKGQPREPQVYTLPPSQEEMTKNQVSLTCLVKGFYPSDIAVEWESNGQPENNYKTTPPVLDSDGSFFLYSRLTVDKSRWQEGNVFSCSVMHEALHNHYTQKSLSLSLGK
light: DIVMTQTPLSLSVTPGQPASISCKASQSLDYEGDSDMNWYLQKPGQPPQLLIYGASNLESGVPDRFSGSGSGTDFTLKISRVEAEDVGVYYCQQSTEDPRTFGGGTKVEIKRTVAAPSVFIFPPSDEQLKSGTASVVCLLNNFYPREAKVQWKVDNALQSGNSQESVTEQDSKDSTYSLSSTLTLSKADYEKHKVYACEVTHQGLSSPVTKSFNRGEC
notes: Humanized 22D2 N55D, IgG4 S228P/kappa; also called Hu22D2 VH6/VL3 N55D (Ab 6); hu22D2 VH6/VL3 N55D
[1]
  IC50: 2.4 nM
[2]
  Kd: 0.002 nM
[3]
  EC50: 0.033 nM
[4]
  EC50: 0.039 nM
Human CD4
  binding result: no binding
